According to patent publication US20150197564A1 (Regeneron, published 2015):

Columns and labels:
[1] = target: T1, hANGPTL3(17-460)-His (human, UniProt Q9Y5C1 17-460); assay: cell-based or functional assay
T1 sequence: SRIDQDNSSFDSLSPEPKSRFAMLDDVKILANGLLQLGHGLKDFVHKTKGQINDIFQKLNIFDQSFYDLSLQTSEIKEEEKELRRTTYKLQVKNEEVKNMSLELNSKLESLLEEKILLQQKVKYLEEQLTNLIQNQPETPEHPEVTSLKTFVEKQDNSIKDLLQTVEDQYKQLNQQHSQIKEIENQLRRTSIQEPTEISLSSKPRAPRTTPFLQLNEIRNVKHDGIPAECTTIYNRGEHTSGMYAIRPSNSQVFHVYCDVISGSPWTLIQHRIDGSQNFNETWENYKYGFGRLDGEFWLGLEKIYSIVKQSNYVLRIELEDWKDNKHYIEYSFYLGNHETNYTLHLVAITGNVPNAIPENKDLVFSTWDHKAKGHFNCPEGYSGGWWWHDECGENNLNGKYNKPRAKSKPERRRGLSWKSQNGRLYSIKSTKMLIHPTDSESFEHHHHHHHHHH

[2] = target: T2, hANGPTL3(17-170)-His (human, UniProt Q9Y5C1 17-170); assay: cell-based or functional assay
T2 sequence: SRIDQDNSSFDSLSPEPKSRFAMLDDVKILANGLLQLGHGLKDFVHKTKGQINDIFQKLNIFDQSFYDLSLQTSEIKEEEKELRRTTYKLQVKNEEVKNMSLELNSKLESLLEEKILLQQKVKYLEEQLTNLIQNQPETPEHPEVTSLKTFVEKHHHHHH

[3] = target: T3, mANGPTL3(17-455)-His (Mus musculus, UniProt Q9R182 17-455); assay: cell-based or functional assay
T3 sequence: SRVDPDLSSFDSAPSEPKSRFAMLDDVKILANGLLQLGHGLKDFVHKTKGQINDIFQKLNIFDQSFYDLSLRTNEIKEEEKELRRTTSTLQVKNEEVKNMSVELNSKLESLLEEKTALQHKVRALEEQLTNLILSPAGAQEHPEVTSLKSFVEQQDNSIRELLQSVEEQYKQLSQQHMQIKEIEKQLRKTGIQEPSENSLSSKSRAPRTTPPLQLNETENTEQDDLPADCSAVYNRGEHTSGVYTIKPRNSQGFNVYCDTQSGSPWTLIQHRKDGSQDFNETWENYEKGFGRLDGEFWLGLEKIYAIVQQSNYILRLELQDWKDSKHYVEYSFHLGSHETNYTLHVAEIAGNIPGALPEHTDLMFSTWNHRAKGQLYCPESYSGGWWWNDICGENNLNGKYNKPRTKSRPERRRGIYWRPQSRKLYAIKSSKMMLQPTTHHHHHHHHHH

[4] = target: T1, hANGPTL3(17-460)-His; assay: SPR Biacore, antigen captured, 37C, pH 5.75, PBSP
Procedure: (§1) All kinetic binding experiments were performed at 25° C. or 37° C. on a BIACORE™ T200 label-free molecular interaction instrument (GE Healthcare) using a CM5 sensor chip. Briefly, an antigen capture surface was generated by covalently coupling either an anti-mouse IgG-specific antibody (anti-mFc; GE Healthcare; catalog #BR-1008-38) or an anti-pentahistidine-specific antibody (Qiagen; catalog #34660) to the surface of a CM5 sensor chip using a standard amine coupling method.

[5] = target: T2, hANGPTL3(17-170)-His; assay: SPR Biacore, antigen captured, 37C, pH 5.75, PBSP
Procedure: as §1

[6] = target: T4, MfANGPTL3(17-170)-mmH (Macaca fascicularis); assay: SPR Biacore, antigen captured, 37C, pH 5.75, PBSP
T4 construct: also called N-terminal coiled-coil domain of ANGPTL3 from Macaca fascicularis with myc-myc-hexahistidine tag; Monkey ANGPTL3 (17-170)-mmH
T4 chain: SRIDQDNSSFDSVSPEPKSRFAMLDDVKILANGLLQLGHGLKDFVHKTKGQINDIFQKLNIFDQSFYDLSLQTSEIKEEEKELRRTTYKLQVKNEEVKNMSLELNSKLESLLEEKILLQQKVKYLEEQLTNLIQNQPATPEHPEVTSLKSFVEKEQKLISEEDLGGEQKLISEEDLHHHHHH
Procedure: as §1

[7] = target: T1, hANGPTL3(17-460)-His; assay: SPR Biacore, antigen captured, 25C, pH 7.4, HBS-EP
Procedure: as §1

[8] = target: T3, mANGPTL3(17-455)-His; assay: SPR Biacore, antigen captured, 25C, pH 7.4, HBS-EP
Procedure: as §1

[9] = target: T5, mANGPTL3(17-240)-His (Mus musculus, UniProt Q9R182 17-240); assay: SPR Biacore, antigen captured, 25C, pH 7.4, HBS-EP
T5 construct: also called N-terminal coiled-coil domain of ANGPTL3 from Mus musculus with a hexahistidine tag; Mouse ANGPTL3 (17-240)-His
T5 sequence: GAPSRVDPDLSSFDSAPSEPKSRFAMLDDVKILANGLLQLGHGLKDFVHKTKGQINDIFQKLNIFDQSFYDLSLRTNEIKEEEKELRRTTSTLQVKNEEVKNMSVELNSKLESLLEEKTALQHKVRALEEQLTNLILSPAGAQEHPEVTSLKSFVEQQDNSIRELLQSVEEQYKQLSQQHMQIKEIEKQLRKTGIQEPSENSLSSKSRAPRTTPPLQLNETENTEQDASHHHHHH
Procedure: as §1

B1: H4H1276S (antibody, IgG4, V domains shown)
VH: EVQLVESGGGVIQPGGSLRLSCAASGFTFDDYAMNWVRQGPGKGLEWVSAISGDGGSTYYADSVKGRFTISRDNSKNSLYLQMNSLRAEDTAFFYCAKDLRNTIFGVVIPDAFDIWGQGTMVTVSS
VL: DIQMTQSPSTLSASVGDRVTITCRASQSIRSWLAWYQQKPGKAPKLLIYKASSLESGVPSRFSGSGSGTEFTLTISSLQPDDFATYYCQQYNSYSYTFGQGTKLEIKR
- IC50 (nM), LPL bioassay, 80 nM constant ANGPTL3 [1]: 9.6 nM
- IC50 (nM), LPL bioassay, 100 nM constant ANGPTL3 [2]: 2.9 nM
- IC50 (nM), LPL bioassay, 80 nM constant ANGPTL3 [3]: 14 nM
- Kd [4]: 227 nM
- koff [4]: 0.0107 s⁻¹
- kon [4]: 47100 M⁻¹ s⁻¹
- t1/2 [4]: 1.1 min
- Kd [5]: 26.7 nM
- koff [5]: 0.0324 s⁻¹
- kon [5]: 1.22e+06 M⁻¹ s⁻¹
- t1/2 [5]: 0.4 min
- Kd [6]: 18.8 nM
- koff [6]: 0.00521 s⁻¹
- kon [6]: 278000 M⁻¹ s⁻¹
- t1/2 [6]: 2.2 min
- Kd [7]: 0.491 nM
- koff [7]: 0.000289 s⁻¹
- kon [7]: 588000 M⁻¹ s⁻¹
- t1/2 [7]: 40 min
- Kd [8]: 0.268 nM
- koff [8]: 0.000346 s⁻¹
- kon [8]: 1.29e+06 M⁻¹ s⁻¹
- t1/2 [8]: 33.4 min
- Kd [9]: 0.458 nM
- koff [9]: 0.000307 s⁻¹
- kon [9]: 670000 M⁻¹ s⁻¹
- t1/2 [9]: 37.6 min
